Experimental data from the supplement of paper PMC7877785.
± gives the uncertainty stated by the source.

Assay: self-splicing fitness, log relative to wild type (ln ratio); higher = more splicing; Tetrahymena group I intron in knt gene, E. coli kanamycin selection, DiMSum; sequences stand for … in CUCUCU…GGAGGGAAAAGUUAUCAGGCAUGCACCUGGUAGCUAGUCUUUAAACCAAUAGAUUGCAUCGGUUUAAAAGGCAAGACCGUCAAAUUGCGGGAAAGGGGUCAACAGCCGUUCAGUACCAAGUCUCAGGGGAAACUUUGAGAUGGCCUUGCAAAGGGUAUGGUAAUAAGCUGACGGACAUGGUCCUAACCACGCAGCCAAGUCCUAAGUCAACAGAUCUUCUGUUGAUAUGGAUGCAGUUCACAGACUAAAUGUCGGUCGGGGAAGAUGUAUUCUUCUCAUAAGAUAUAGUCGGACCUCUCCUUAAUGGGAGCUAGCGGAUGAAGUGAUGCAACACUGGAGCCGCUGGGAACUAAUUUGUAUGCGAAAGUAUAUUGAUUAGUUUUGGAGUACUCGUGGUCG
Method in brief: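 DiMSum derived fitness as the error-weighted combination of fold changes across replicates, kanamycin versus no kanamycin, normalised to wild type. E. coli BL21(DE3) held the library, which randomised all eight P1ex-region intron nucleotides within the knt kanamycin-resistance gene on pET-22b(+). Six replicate transformations grew overnight at 37°C or 30°C on LB agar with or without 25 μg/mL kanamycin, also containing 100 μg/mL carbenicillin, 50 μM IPTG and 0.2% rhamnose, and pooled colonies were amplicon-sequenced on an Illumina HiSeq 2500.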

GCCGAGCAAUAUUACGAUAA
self-splicing fitness (ln) (30 °C): -2.07 ± 0.21
self-splicing fitness (ln) (37 °C): -2.08 ± 0.26

GCCGAGCAAUAUUACGAUCU
self-splicing fitness (ln) (37 °C): -0.908 ± 0.4

GCCGAGCAAUAUUACGAUUU
self-splicing fitness (ln) (30 °C): -2.04 ± 0.14
self-splicing fitness (ln) (37 °C): -0.375 ± 0.14

GCCGAGCAAUAUUACGCCAU
self-splicing fitness (ln) (30 °C): -2.88 ± 0.23
self-splicing fitness (ln) (37 °C): -2.5 ± 0.38

GCCGAGCAAUAUUACGCCGG
self-splicing fitness (ln) (30 °C): -3.21 ± 0.3
self-splicing fitness (ln) (37 °C): -2.08 ± 0.38

GCCGAGCAAUAUUACGCGAA
self-splicing fitness (ln) (30 °C): -1.84 ± 0.12
self-splicing fitness (ln) (37 °C): -1.34 ± 0.17

GCCGAGCAAUAUUACGCUCC
self-splicing fitness (ln) (30 °C): -0.576 ± 0.44

GCCGAGCAAUAUUACGCUUC
self-splicing fitness (ln) (30 °C): -2.53 ± 0.18
self-splicing fitness (ln) (37 °C): -1.65 ± 0.25

GCCGAGCAAUAUUACGGACG
self-splicing fitness (ln) (30 °C): -2.44 ± 0.18
self-splicing fitness (ln) (37 °C): -0.841 ± 0.2

GCCGAGCAAUAUUACGGCCU
self-splicing fitness (ln) (30 °C): -2.54 ± 0.42
self-splicing fitness (ln) (37 °C): -1.56 ± 0.35

GCCGAGCAAUAUUACGGCUC
self-splicing fitness (ln) (37 °C): -1.49 ± 0.46

GCCGAGCAAUAUUACGGGAU
self-splicing fitness (ln) (30 °C): -2.03 ± 0.11
self-splicing fitness (ln) (37 °C): -0.76 ± 0.13

GCCGAGCAAUAUUACGGGUC
self-splicing fitness (ln) (30 °C): -3.68 ± 0.16
self-splicing fitness (ln) (37 °C): -2.77 ± 0.11

GCCGAGCAAUAUUACGUAAC
self-splicing fitness (ln) (30 °C): -2.89 ± 0.19
self-splicing fitness (ln) (37 °C): -0.977 ± 0.2

GCCGAGCAAUAUUACGUCUA
self-splicing fitness (ln) (30 °C): -3.15 ± 0.29
self-splicing fitness (ln) (37 °C): -0.742 ± 0.15

GCCGAGCAAUAUUACGUUAG
self-splicing fitness (ln) (30 °C): -3.58 ± 0.17
self-splicing fitness (ln) (37 °C): -2.65 ± 0.19

GCCUAGCAAUAUUACGACUC
self-splicing fitness (ln) (30 °C): -0.376 ± 0.14
self-splicing fitness (ln) (37 °C): 0.0998 ± 0.17

GCCUAGCAAUAUUACGAGAG
self-splicing fitness (ln) (30 °C): -3.76 ± 0.32
self-splicing fitness (ln) (37 °C): -1.44 ± 0.12

GCCUAGCAAUAUUACGAUGA
self-splicing fitness (ln) (30 °C): -2.48 ± 0.16
self-splicing fitness (ln) (37 °C): -1.4 ± 0.14

GCCUAGCAAUAUUACGCCGA
self-splicing fitness (ln) (30 °C): -0.66 ± 0.49

GCCUAGCAAUAUUACGCGCC
self-splicing fitness (ln) (30 °C): -2.42 ± 0.34
self-splicing fitness (ln) (37 °C): -1.39 ± 0.31

GCCUAGCAAUAUUACGCUGG
self-splicing fitness (ln) (30 °C): -2.92 ± 0.17
self-splicing fitness (ln) (37 °C): -3.83 ± 0.42

GCCUAGCAAUAUUACGGAAG
self-splicing fitness (ln) (30 °C): -2.96 ± 0.17
self-splicing fitness (ln) (37 °C): -1.44 ± 0.17

GCCUAGCAAUAUUACGGGAG
self-splicing fitness (ln) (30 °C): -0.724 ± 0.094
self-splicing fitness (ln) (37 °C): -0.391 ± 0.094

GCCUAGCAAUAUUACGUGAA
self-splicing fitness (ln) (30 °C): -0.836 ± 0.073
self-splicing fitness (ln) (37 °C): 0.346 ± 0.077

GCGAAGCAAUAUUACGACAC
self-splicing fitness (ln) (30 °C): -0.709 ± 0.21
self-splicing fitness (ln) (37 °C): 0.892 ± 0.34

GCGAAGCAAUAUUACGACUA
self-splicing fitness (ln) (30 °C): 0.115 ± 0.22
self-splicing fitness (ln) (37 °C): -1.94 ± 0.2

GCGAAGCAAUAUUACGAGUG
self-splicing fitness (ln) (30 °C): -1.09 ± 0.1
self-splicing fitness (ln) (37 °C): -2.13 ± 0.12

GCGAAGCAAUAUUACGAUAG
self-splicing fitness (ln) (30 °C): -2.35 ± 0.14
self-splicing fitness (ln) (37 °C): -1.51 ± 0.17

GCGAAGCAAUAUUACGAUUA
self-splicing fitness (ln) (30 °C): -1.52 ± 0.3
self-splicing fitness (ln) (37 °C): -0.0699 ± 0.23

GCGAAGCAAUAUUACGCCCC
self-splicing fitness (ln) (30 °C): -2.37 ± 0.46

GCGAAGCAAUAUUACGCGUG
self-splicing fitness (ln) (30 °C): -1.54 ± 0.12
self-splicing fitness (ln) (37 °C): -1.7 ± 0.13

GCGAAGCAAUAUUACGCUCG
self-splicing fitness (ln) (30 °C): -2.95 ± 0.29
self-splicing fitness (ln) (37 °C): -2.12 ± 0.27

GCGAAGCAAUAUUACGCUGA
self-splicing fitness (ln) (30 °C): -0.605 ± 0.24
self-splicing fitness (ln) (37 °C): -1.5 ± 0.34

GCGAAGCAAUAUUACGGAAA
self-splicing fitness (ln) (30 °C): -3.34 ± 0.36
self-splicing fitness (ln) (37 °C): -1.57 ± 0.27

GCGAAGCAAUAUUACGGCAU
self-splicing fitness (ln) (30 °C): -1.25 ± 0.099
self-splicing fitness (ln) (37 °C): -0.00655 ± 0.089

GCGAAGCAAUAUUACGGCCU
self-splicing fitness (ln) (30 °C): -1.4 ± 0.12
self-splicing fitness (ln) (37 °C): 0.334 ± 0.16

GCGAAGCAAUAUUACGGCUC
self-splicing fitness (ln) (30 °C): -1.78 ± 0.17
self-splicing fitness (ln) (37 °C): -2.01 ± 0.25

GCGAAGCAAUAUUACGGCUU
self-splicing fitness (ln) (30 °C): -2.39 ± 0.36

GCGAAGCAAUAUUACGGGUA
self-splicing fitness (ln) (30 °C): -3.04 ± 0.23
self-splicing fitness (ln) (37 °C): -0.904 ± 0.17

GCGAAGCAAUAUUACGGUAG
self-splicing fitness (ln) (30 °C): -4.07 ± 0.42
self-splicing fitness (ln) (37 °C): -2.77 ± 0.26

GCGAAGCAAUAUUACGGUCC
self-splicing fitness (ln) (30 °C): -3.6 ± 0.25
self-splicing fitness (ln) (37 °C): -2.27 ± 0.31

GCGAAGCAAUAUUACGGUGG
self-splicing fitness (ln) (30 °C): -4.24 ± 0.23
self-splicing fitness (ln) (37 °C): -3.08 ± 0.27

GCGAAGCAAUAUUACGUCCG
self-splicing fitness (ln) (30 °C): -1.24 ± 0.14
self-splicing fitness (ln) (37 °C): -0.577 ± 0.2

GCGAAGCAAUAUUACGUGAG
self-splicing fitness (ln) (30 °C): -1.89 ± 0.091
self-splicing fitness (ln) (37 °C): -2.01 ± 0.1

GCGAAGCAAUAUUACGUGCU
self-splicing fitness (ln) (30 °C): -2.63 ± 0.16
self-splicing fitness (ln) (37 °C): -2.75 ± 0.2

GCGAAGCAAUAUUACGUUUG
self-splicing fitness (ln) (30 °C): -2.87 ± 0.14
self-splicing fitness (ln) (37 °C): -2.68 ± 0.23

GCGCAGCAAUAUUACGACCU
self-splicing fitness (ln) (30 °C): 0.0686 ± 0.071
self-splicing fitness (ln) (37 °C): 0.0313 ± 0.084

GCGCAGCAAUAUUACGACUU
self-splicing fitness (ln) (30 °C): -0.0557 ± 0.087
self-splicing fitness (ln) (37 °C): 0.099 ± 0.093

GCGCAGCAAUAUUACGAGGA
self-splicing fitness (ln) (30 °C): -1.89 ± 0.3
self-splicing fitness (ln) (37 °C): -0.618 ± 0.16
